In patent publication US20250277030A1 (Zymeworks, published 2025):

Key:
[1] = target: T1, human sodium-dependent phosphate transporter 2B (NaPi2b) (human, UniProt O95436 1-690); assay: flow cytometry, IGROV-1 cells (endogenous NaPi2b); apparent Kd
T1 construct: UniProt ID is given as 095436 [sic]; also called hNaPi2b; Hu NaPi2b
T1 sequence: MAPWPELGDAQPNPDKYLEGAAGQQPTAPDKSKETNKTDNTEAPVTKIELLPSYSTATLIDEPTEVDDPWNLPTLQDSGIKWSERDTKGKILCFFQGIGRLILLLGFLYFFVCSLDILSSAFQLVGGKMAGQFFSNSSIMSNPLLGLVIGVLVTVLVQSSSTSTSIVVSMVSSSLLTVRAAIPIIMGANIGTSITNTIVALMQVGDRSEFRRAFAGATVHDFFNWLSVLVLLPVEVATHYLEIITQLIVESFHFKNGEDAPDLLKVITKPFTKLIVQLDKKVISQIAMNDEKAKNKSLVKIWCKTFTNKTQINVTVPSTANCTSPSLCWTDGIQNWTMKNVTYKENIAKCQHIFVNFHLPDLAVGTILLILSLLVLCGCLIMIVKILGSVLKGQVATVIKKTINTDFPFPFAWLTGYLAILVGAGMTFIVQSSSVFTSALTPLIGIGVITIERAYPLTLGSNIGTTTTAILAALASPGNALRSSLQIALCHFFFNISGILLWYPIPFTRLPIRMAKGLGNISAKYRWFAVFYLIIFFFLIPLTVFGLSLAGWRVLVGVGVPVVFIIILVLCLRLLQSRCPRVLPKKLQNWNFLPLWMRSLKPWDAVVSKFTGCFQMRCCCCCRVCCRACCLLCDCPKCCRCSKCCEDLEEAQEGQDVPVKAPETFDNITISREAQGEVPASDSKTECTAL
Procedure: Briefly, cells were seeded at 50,000 cells/well in conical-bottom 96-well plates and treated with test antibody for 24 hours at 4° C. to prevent internalization. […] Following incubation, cells were washed and stained with anti-Human IgG Fc AF647 conjugate (Jackson Immuno Research Labs, West Grove, PA; Cat. No. 109-605-098) at 4° C. for 30 min. Following incubation and washing, fluorescence was detected by flow cytometry on a BD LSRFortessa™ Cell Analyzer (BD Biosciences, Franklin Lake, NJ) with 1,000 minimum events collected per well. The AF647/APC-A GeoMean (fluorescence signal geometric mean, proportional to anti-Human AF647 binding) was calculated for the live cell population using FlowJo™ Version 10.8.1 (BD Biosciences, Franklin Lake, NJ) and plotted for each test antibody using GraphPad Prism Version 9 (GraphPad Software, San Diego, CA).
The ability of the humanized antibody variants v38591 and v29456 to bind to NaPi2b expressed on cells was assessed on endogenous NaPi2b-expressing tumor cell lines IGROV-1 (ovarian adenocarcinoma) and TOV-21G (ovarian carcinoma) by flow cytometry.
Cellular binding was performed according to methods described in Example 13.

[2] = target: T1, human sodium-dependent phosphate …; assay: flow cytometry on HCC-78 cells (endogenous NaPi2b), 4 C, anti-human IgG Fc AF647 detection
Procedure: (§1) Briefly, HEK293-6e cells were transfected for ˜24 hours to transiently express human NaPi2b, cynomolgus or mouse NaPi2b, at 1 μg of DNA per 1 million cells. Following transfection, 50,000 cells per well were seeded in V-bottom 96-well plates and incubated with 200 nM of primary antibody for 18-24 hours at 4° C. to prevent internalization. Post-incubation, cells were washed and stained with anti-Human IgG Fc AF647 conjugate (Jackson Immuno Research Labs, West Grove, PA, Cat. No. 109-605-098, Lot. No. 124868) at 4° C. for 1 hour. Following staining and washing, fluorescence was detected by flow cytometry on BD LSRFortessa™ Cell Analyzer (BD Biosciences, Franklin Lake, NJ) with 10,000 minimum events collected per well. The AF647/APC-A GeoMean (fluorescence signal geometric mean, proportional to anti-Human AF647 binding) was calculated for the live singlet cell population for each primary antibody using FlowJo™ v8 software (BD Biosciences, Franklin Lake, NJ). The Bmax and Kd of each primary antibody were calculated using GraphPad Prism Version 9 (GraphPad Software, San Diego, CA)
The ability of ADCs to bind to cells expressing NaPi2b was assessed. […] Binding to endogenous high NaPi2b-expressing cell lines IGROV-1 and HCC-78 was assessed by flow cytometry according to methods described in Example 5.

mouse NaPi2b = target: T2, mouse NaPi2b (mouse, UniProt Q9DBP0 1-697); assay: flow cytometry, HEK293-6e cells transfected with mouse NaPi2b; apparent Kd
T2 construct: Transiently expressed on HEK293-6e cells; also called Ms NaPi2b
T2 sequence: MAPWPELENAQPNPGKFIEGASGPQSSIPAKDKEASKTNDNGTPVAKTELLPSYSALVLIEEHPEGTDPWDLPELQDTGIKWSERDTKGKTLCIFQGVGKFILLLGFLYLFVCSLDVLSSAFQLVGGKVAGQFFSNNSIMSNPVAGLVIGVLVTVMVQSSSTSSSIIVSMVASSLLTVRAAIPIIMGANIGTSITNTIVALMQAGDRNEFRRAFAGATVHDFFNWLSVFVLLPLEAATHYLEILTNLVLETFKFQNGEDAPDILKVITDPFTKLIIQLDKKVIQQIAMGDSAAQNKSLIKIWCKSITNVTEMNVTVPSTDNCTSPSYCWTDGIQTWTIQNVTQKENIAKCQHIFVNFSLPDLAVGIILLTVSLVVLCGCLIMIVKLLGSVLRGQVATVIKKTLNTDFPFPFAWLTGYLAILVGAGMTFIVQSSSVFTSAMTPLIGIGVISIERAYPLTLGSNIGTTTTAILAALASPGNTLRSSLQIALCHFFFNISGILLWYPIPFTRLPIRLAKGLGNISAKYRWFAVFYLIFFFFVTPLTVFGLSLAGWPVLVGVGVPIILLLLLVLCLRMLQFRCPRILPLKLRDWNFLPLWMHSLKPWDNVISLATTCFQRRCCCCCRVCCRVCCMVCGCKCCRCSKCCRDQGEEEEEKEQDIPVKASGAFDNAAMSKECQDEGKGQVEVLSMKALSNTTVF
Procedure: The binding cross-reactivity of humanized antibody variant v29456 to human, cynomolgus and mouse NaPi2b was assessed by flow cytometry using HEK293-6e transfected cells.
as §1

[3] = target: T1, human sodium-dependent phosphate …; assay: flow cytometry, IGROV-1 cells (endogenous NaPi2b), 24 h at 4 °C
Procedure, shortened: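 IGROV-1 cells were incubated with test antibody for 24 hours at 4° C to prevent internalization, then stained with anti-human IgG Fc AF647 for 30 min at 4° C. AF647 geometric mean fluorescence of live cells was measured by flow cytometry and plotted per antibody.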

[4] = target: T1, human sodium-dependent phosphate …; assay: cell-based or functional assay

B1: v29456 humanized anti-NaPi2b antibody (H1L2) (antibody, human IgG1, kappa)
heavy: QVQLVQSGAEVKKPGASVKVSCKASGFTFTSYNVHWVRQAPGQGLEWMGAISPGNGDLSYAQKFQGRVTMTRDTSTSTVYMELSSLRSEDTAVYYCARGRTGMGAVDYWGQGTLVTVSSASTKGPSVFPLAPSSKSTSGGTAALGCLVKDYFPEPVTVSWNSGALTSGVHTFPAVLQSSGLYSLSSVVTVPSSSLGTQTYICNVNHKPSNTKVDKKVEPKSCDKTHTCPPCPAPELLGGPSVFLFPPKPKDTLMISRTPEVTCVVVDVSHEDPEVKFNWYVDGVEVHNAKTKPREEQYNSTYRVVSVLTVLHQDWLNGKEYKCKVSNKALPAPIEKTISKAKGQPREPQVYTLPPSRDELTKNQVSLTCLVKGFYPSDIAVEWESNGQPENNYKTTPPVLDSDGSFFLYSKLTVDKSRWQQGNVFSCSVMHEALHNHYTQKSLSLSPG
light: DVQMTQSPSSLSASVGDRVTITCRASQDVYSYLNWYQQKPGKAVKLLIYYTSRLQSGVPSRFSGSGSGTDYTLTISSLQPEDFATYYCQQYNIFPWTFGQGTKLEIKRTVAAPSVFIFPPSDEQLKSGTASVVCLLNNFYPREAKVQWKVDNALQSGNSQESVTEQDSKDSTYSLSSTLTLSKADYEKHKVYACEVTHQGLSSPVTKSFNRGEC
Kd [1]: 1.28 nM | EC50 (read off the curve) [2]: ~2 nM | Kd (mouse NaPi2b): 10.6 nM | Bmax (MFI) [3]: 40900 MFI | Internalized Fluorescence Fold-Over Palivizumab, HCC-78, 5 hrs [4]: 25.3 fold | Internalized Fluorescence Fold-Over Palivizumab, HCC-78, 24 hrs [4]: 59.9 fold | Internalized Fluorescence Fold-Over Palivizumab, NCI-H441, 5 hrs [4]: 2.4 fold | Internalized Fluorescence Fold-Over Palivizumab, NCI-H441, 24 hrs [4]: 4 fold
